Reference: the supplement of paper PMC6757056
± gives the standard deviation of the averaged measurements.

B1: library; a variant is named by its letters at N, in order (parent)
chain: GCUGUCACCGAGAAACUGUGAAGUAUAUCUUAAACCUGGGCACUUAAAAGAUAUAUGGAGUUAGUAGUGCAACCUGCUCGGUCUGAUGAGUCCNNNNNNGGACGAAACAGC

Legend:
cyclic di-GMP [1] = variants of: B1; assay: FACS-Seq fitted mean relative fluorescence mCherry/BFP without ligand (log10 relative fluorescence); HEK293T; ligand: cyclic di-GMP (c-di-GMP-II aptamer); higher = higher reporter protein expression; conditions: ligand present: no
Summary of the method: (§1)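 Fluorescence is reported as a normalized fitted mean of sorted-bin read counts. Lentivirally transduced HEK293T libraries (mCherry ribozyme-switch reporter, EF1α-BFP marker) were enriched, treated with or without ligand for 48 h, and sorted into 6 mCherry/BFP bins for MiSeq sequencing of PCR-amplified genomic DNA. The normal fit was on log10(mCherry/BFP), scaled to five spiked-in control ribozymes.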

cyclic di-GMP [2] = variants of: B1; assay: normalized RNA/DNA level without ligand (relative to sTRSVctl = 100) (log10 (% of sTRSVctl)); HEK293T; ligand: cyclic di-GMP (c-di-GMP-II aptamer); higher = less ribozyme self-cleavage, higher mRNA level; conditions: reporter: mCherry (pCS4076), ligand present: no
Experimental: (§2)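 Hammerhead (sTRSV) ribozyme switch libraries with a ligand aptamer grafted on stem I and a randomized N4-6 loop II, cloned into the 3' UTR of mCherry and transiently transfected into HEK293T cells; RNA-Seq 72 h post transfection with ligand added 1 h before transfection; RNA read count / plasmid DNA read count normalized to the non-cleaving sTRSVctl (x100), log10; sequences with >100 DNA reads. FACS-Seq: lentiviral library sorted into 6 bins after 48 h ligand, log-normal fit mean of mCherry/BFP scaled to controls. Printed sequences are partial switch sequences.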

cyclic di-GMP [3] = variants of: B1; assay: FACS-Seq fitted mean relative fluorescence mCherry/BFP with ligand (log10 relative fluorescence); HEK293T; ligand: cyclic di-GMP (c-di-GMP-II aptamer); ligand concentration (+) FACS-Seq: 1 mM; higher = higher reporter protein expression; conditions: ligand present: yes
Summary of the method: as §1

cyclic di-GMP [4] = variants of: B1; assay: normalized RNA/DNA level with ligand (relative to sTRSVctl = 100) (log10 (% of sTRSVctl)); HEK293T; ligand: cyclic di-GMP (c-di-GMP-II aptamer); ligand concentration (+) RNA-Seq: 1 mM; higher = less ribozyme self-cleavage, higher mRNA level; conditions: reporter: mCherry (pCS4076), ligand present: yes
Experimental: as §2

Variant | FACS-Seq fitted mean (log10) (cyclic di-GMP [1]) | normalized RNA/DNA level without ligand (log10) (cyclic di-GMP [2]) | FACS-Seq fitted mean (log10) (cyclic di-GMP [3]) | normalized RNA/DNA level with ligand (log10) (cyclic di-GMP [4])
UAUGAC | -0.234 ± 0.026 | 1.71 ± 0.057 | 0.133 ± 0.1 | 1.87 ± 0.1
ACGUGU | -0.475 ± 0.012 | 1.45 ± 0.097 | -0.096 ± 0.051 | 1.69 ± 0.078
UGAAGU | -0.24 ± 0.081 | 1.59 ± 0.024 | 0.0885 ± 0.12 | 1.79 ± 0.12
CGGUGU | -0.862 ± 0.11 | 1.68 ± 0.02 | -0.65 ± 0.12 | 1.88 ± 0.14
GCAACA | -0.823 ± 0.12 | 1.55 ± 0.048 | -0.56 ± 0.014 | 1.75 ± 0.12
CACAGA | -0.384 ± 0.025 | 1.53 ± 0.058 | -0.0508 ± 0.039 | 1.74 ± 0.1
UCGCGA | -0.247 ± 0.071 | 1.668 ± 0.0022 | 0.0917 ± 0.061 | 1.8 ± 0.1
GCCAUU | -0.372 ± 0.0056 | 1.58 ± 0.016 | -0.161 ± 0.13 | 1.78 ± 0.13
CGAUGC | -0.127 ± 0.16 | 1.722 ± 0.014 | 0.202 ± 0.062 | 1.88 ± 0.049
GCAAAU | -0.773 ± 0.072 | 1.39 ± 0.071 | -0.484 ± 0.094 | 1.61 ± 0.12
AGGAAA | -0.514 ± 0.031 | 1.33 ± 0.15 | -0.185 ± 0.026 | 1.52 ± 0.1
GAACGU | -0.419 ± 0.027 | 1.54 ± 0.095 | -0.133 ± 0.0044 | 1.69 ± 0.092
UUAUGG | -0.0165 ± 0.12 | 1.74 ± 0.053 | 0.213 ± 0.035 | 1.85 ± 0.13
UUCAAC | -0.163 ± 0.071 | 1.695 ± 0.004 | 0.153 ± 0.024 | 1.82 ± 0.12
GAAAGA | -0.392 ± 0.037 | 1.41 ± 0.11 | -0.0161 ± 0.058 | 1.57 ± 0.11
AGAUAA | -0.905 ± 0.032 | 1.44 ± 0.11 | -0.444 ± 0.023 | 1.65 ± 0.11
CGGGGC | -0.104 ± 0.11 | 1.73 ± 0.055 | 0.215 ± 0.046 | 1.84 ± 0.14
AUUCGG | -0.4 ± 0.23 | 1.7 ± 0.019 | 0.0339 ± 0.063 | 1.82 ± 0.2

Variant | FACS-Seq fitted mean (log10) (cyclic di-GMP [1]) | normalized RNA/DNA level without ligand (log10) (cyclic di-GMP [2]) | FACS-Seq fitted mean (log10) (cyclic di-GMP [3]) | normalized RNA/DNA level with ligand (log10) (cyclic di-GMP [4])
AGCCUU | 0.0156 ± 0.081 | 1.712 ± 0.003 | 0.33 ± 0.038 | 1.85 ± 0.084
GAAAUA | 0.098 ± 0.25 | 1.47 ± 0.079 | 0.291 ± 0.031 | 1.65 ± 0.12
CUUCAU | -0.264 ± 0.079 | 1.58 ± 0.044 | -0.136 ± 0.066 | 1.75 ± 0.12
GUUCGU | -0.35 ± 0.027 | 1.66 ± 0.01 | 0.0521 ± 0.011 | 1.8 ± 0.074
AGACGU | -1.017 ± 0.0037 | 1.573 ± 0.012 | -0.759 ± 0.072 | 1.75 ± 0.13
AGGUGA | -0.464 ± 0.029 | 1.52 ± 0.1 | -0.245 ± 0.0095 | 1.6 ± 0.083
GAUAAA | -0.481 ± 0.013 | 1.47 ± 0.065 | -0.1618 ± 0.00059 | 1.63 ± 0.1
AAGAGA | -0.637 ± 0.058 | 1.33 ± 0.078 | -0.296 ± 0.066 | 1.54 ± 0.094
GCAUUG | -0.56 ± 0.071 | 1.5 ± 0.13 | -0.211 ± 0.025 | 1.71 ± 0.052
CUGGAA | -0.647 ± 0.051 | 1.26 ± 0.1 | -0.397 ± 0.011 | 1.41 ± 0.06
GCCAUA | 0.0302 ± 0.039 | 1.55 ± 0.05 | 0.269 ± 0.026 | 1.72 ± 0.069
GUUAAU | -0.336 ± 0.014 | 1.62 ± 0.041 | -0.0912 ± 0.025 | 1.77 ± 0.067
UGUUGA | -0.163 ± 0.015 | 1.6 ± 0.041 | -0.0478 ± 0.051 | 1.78 ± 0.12
CGCCAA | -0.26 ± 0.2 | 1.37 ± 0.045 | 0.0764 ± 0.12 | 1.56 ± 0.15
AAAAUU | -0.708 ± 0.058 | 1.62 ± 0.034 | -0.4137 ± 0.00058 | 1.76 ± 0.085
CGCAAU | -0.449 ± 0.027 | 1.45 ± 0.087 | -0.206 ± 0.045 | 1.61 ± 0.078
GAAGAA | -0.423 ± 0.0092 | 1.38 ± 0.15 | -0.233 ± 0.045 | 1.59 ± 0.08
GCAGAA | -0.671 ± 0.025 | 1.27 ± 0.082 | -0.367 ± 0.017 | 1.5 ± 0.13
